Experimental data from the nanobody polyreactivity screen of Harvey et al. (2022).

assay: yeast display, Sf9 membrane polyspecificity reagent, FACS + sequencing; frameworks hold sequencing errors
How it was run: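 Sorting gates, low and high (top ~1%), were placed on anti-HA fluorescence to track expression and on streptavidin fluorescence to track reagent binding. A clone's polyreactivity label is taken from the gate it came out of. The reagent was 10% biotinylated, detergent-solubilized Sf9 membrane, applied for 1 hour at 4 °C to galactose-induced yeast display cells.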

Sequence	polyreactivity (PSR sort gate)
QVQLVESGGGLVQAGGSLRLSCAASGSIFSYYAMGWYRQAPGKERELVAAISYSGSDTYYADSVKGRFTISRDNAKNTVSFQMNSLKPEDTAVYYCAAEDPSYSYHYWGQGTQVTVSS	low polyreactivity
QVQLVESGGGLVQAGGSLRLSCAASGSIFSYYAMGWYRQAPGKERELVAAITRSGSKNYADSVKGRFTISRDNAKNTVYLQMNSLKPEDTAVYYCAAETDESDWYYYWGQGTQVTVSS	high polyreactivity
QVQLVESGGGLVQAGGSLRLSCAASGSIFSYYAMGWYRQAPGKERELVAAITVRGGSTYYADSVKGRFTISRDNAKNTVYLQMNSLKPEDTAVYYCAADWLDESFSYGPYYYWGQGTQVTVSS	low polyreactivity
QVQLVESGGGLVQAGGSLRLSCAASGSIFSYYAMGWYRQAPGKERELVAGISISTGSTYYADSVKGRFTISRDNAKNTVYLQMNSLIPEDTAVYYCNASALDPLYAKDDYWGQGTQVTVSS	low polyreactivity
QVQLVESGGGLVQAGGSLRLSCAASGSIFSYYAMGWYRQAPGKERELVARITRGGDGTYYADSVKGRFTISRDNAKNTDYLQMNSLKPEDTAVYYCARRQVLYTRDFEYDYWGQGTQVTVSS	low polyreactivity
QVQLVESGGGLVQAGGSLRLSCAASGSIFSYYAMGWYRQAPGKERELVASISWNGTSTYYADSVKGRFTISRDNAKNTVDLQMNSLKPEDTADYYCNVRFNYRGTYDYWGQGTQVTVSS	low polyreactivity
QVQLVESGGGLVQAGGSLRLSCAASGSIFSYYAMGWYRQATAKERDLVAAISTSCGNTYYADSVKGRFTISRDNPKNRVYVQMNSLKPEDTAVYYCAAENVWAWFYGYDYWGQGTQVTVSS	high polyreactivity
QVQLVESGGGLVQAGGSLRLSCAASGSIFSYYAMGWYRQEPGKERELVAAITWSGTRTYYADSVKGRFTISRDNAKNTVYLQMISLKPEDTAVYYCATEYDYWDDSYDSWGLGTQVTVSS	low polyreactivity
QVQLVESGGGLVQAGGSLRLSCAASGSIFSYYGMGWYRQAPGKERELVAAITDGDGTNYADSVKGRFTISRDNAKNTVYLQMNSLKPEDTAVYYCARDDRDIRGESGREGFLYDYWGQGTQVTVSS	low polyreactivity
QVQLVESGGGLVQAGGSLRLSCAASGSIFSYYTMGWYRQAPGKERELVAAITRGGRTSYADSVKGRFTISRDNAKNTVYLQMNSLKPEDTAVYYCAADYWYFTHQLSTYGDNYWGQGTQVTVSS	low polyreactivity
QVQLVESGGGLVQAGGSLRLSCAASGSIFTDNAMGWYRQAPGKERALVAAISWIGDSTDYADSVKGRFTISRDNAKNTVYLQMNSLKPDDTAVYFCAADAKVVSPLYRANDIGMYYWGQGTQVTVSS	low polyreactivity
QVQLVESGGGLVQAGGSLRLSCAASGSIFTDNAMGWYRQAPGKERELVAAITGRGGNTYYADSVKGRFTISRDNAKNTVYLQMNSLKPEDTAVYYCAARIFRTRKPLGYWGQGTQVTVSS	high polyreactivity
QVQLVESGGGLVQAGGSLRLSCAASGSIFTENDMGWYRQAPGKEREMVAAIDWDGGRTYYADSVKGRFTISRDNAKNTVYLQMNSLKPEDTAVYYCNKGRYWSNYFYWPSTHVYWGQGTQVTVSS	high polyreactivity
QVQLVESGGGLVQAGGSLRLSCAASGSIFTFNAMGWYRQAPGKERELVASINWSGGSTYYADSVKGRFTISRDNAKNTVYLQMNSLKPEDTAVYYCNKRRNGYGSQFYYPYDYWGQGTQVTVSS	low polyreactivity
QVQLVESGGGLVQAGGSLRLSCAASGSIFTFNAMGWYRQAPGKERELVATISRRTGSTYYADSVKGRFTISRDNAKNTVYLQMNSLKPEDTAVYYCAARRRVYWYNHYNYWGQGTQVTVSS	high polyreactivity
QVQLVESGGGLVQAGGSLRLSCAASGSIFTFYAMGWYIQAPGKERELVAAISSGGDTYYADSVKGRFTISRDNAKNTVYLQKNILKPEDTAVYYCAADWRGSYLYGYYYWGQGTQVTVSS	low polyreactivity
QVQLVESGGGLVQAGGSLRLSCAASGSIFTFYAMGWYRQAPGKERELVATITWSGGSTFYADSVKGRFTISRDNAKNTVYLQMNSLKPEDTAVYYCAAYRVDYSDAYYYWGQGTQVTVSS	low polyreactivity
QVQLVESGGGLVQAGGSLRLSCAASGSIFTGYAMGWSRQAPGKEREMLAAISWSGGSTSYADSVKGRFTISRDNAKNTVYLQMNSLKPEDTAVYYCSTDVRQGSGWRYYYWGQGTQVTVSS	high polyreactivity
QVQLVESGGGLVQAGGSLRLSCAASGSIFTGYAMGWYRQAPGKERELVAAITYGSGRTYYADSVKGRFTISRDNAKNTLYLQMNSLKPEDTAVYYCAAKWSPYYYYIGYDYWGQGTQVTVSS	low polyreactivity
QVQLVESGGGLVQAGGSLRLSCAASGSIFTGYAMGWYRQAPGKERELVARITKRGGSTYYADSVKGRFTISRDNAKNTVYLQMNSLKPEDTAVFYCNADRKFPYGSYETHDYWGQGTQVTVSS	high polyreactivity
QVQLVESGGGLVQAGGSLRLSCAASGSIFTHNAMGWYRQAPGKERELVAAISTSGGRTYYADSVKGRFTISRDNAKNTVYLQMNSLKPEDTAVYYCAKLSTARYDYWGQGTQVTVSS	high polyreactivity
QVQLVESGGGLVQAGGSLRLSCAASGSIFTHNDMGWYRQAPGQERELVAAISSGGSTNYADSVTGRFTISRDNAKNTVYLQMNSLIPVETAVYYCAKSIDGWYWRRRRYDYWGQGTQVTVSS	low polyreactivity

Sequence	polyreactivity (PSR sort gate)
QVQLVESGGGLVQAGGSLRLSCAASGSIFTKYAMGWYIQAPGKEREFVAAITLSGGSTYYADSVKGRFTISRDNAKNTVYLQMNSLKPEDTAVYYCNAAYTYVTAWYYYWGQGTQVTVSS	high polyreactivity
QVQLVESGGGLVQAGGSLRLSCAASGSIFTKYAMGWYRQAPGKERELVAAINARGGSTYYADSVKGRFTISRDNAKNTVYLQMNSLKPEDTAVYYCAARYGVGRADYYWGQGTQVTVSS	high polyreactivity
QVQLVESGGGLVQAGGSLRLSCAASGSIFTLYAMGWYRQAPGKERELVAAITRSGGSTYYADSVKGRFTISRDNAKNTVYLQMNSLKPEDTAVYYCAADKAPYSTEGDYWGQGTQVTVSS	high polyreactivity
QVQLVESGGGLVQAGGSLRLSCAASGSIFTLYSMGWYRQAPGKERELVATINWSGGSTSYADSVKGRFTISRDNAKYTVYLQMNSLKADDTAVYYCAADYYFWHGTGYDYWGQGTQVNVSS	low polyreactivity
QVQLVESGGGLVQAGGSLRLSCAASGSIFTNYAMGWYRQAPGKERELVAAISVGGGRTYYADSVKGRFTISRDNAKNTVYLQMNSLKPEDTAVYYCAASRRTRSMNYWGQGTQVTVSS	high polyreactivity
QVQLVESGGGLVQAGGSLRLSCAASGSIFTNYPMGCYRQAPGKERELVAAISQSGDTTYYADSVKGRFTISRDNAKNTVYLQMNSLKPEDSSVYYCAAQYYRWFYYWGQGTQVTVSS	high polyreactivity
QVQLVESGGGLVQAGGSLRLSCAASGSIFTPYAMGWSRQAPGKLRELVADISRSGSTNYADSVKGRFTISRDNAKNTVYLQMNSLKPEDTAVYYCNADFWWHWGTSYVYWGQGTQVTVSS	high polyreactivity
QVQLVESGGGLVQAGGSLRLSCAASGSIFTPYAMGWYRQAPGKEREFVADIDDSGGGTYADSVKGRFTISRDNAKNTVYLQMNSLKPEDTAVYYCNADTGIWDYRFVDRDYWGQGTQVTVSW	low polyreactivity
QVQLVESGGGLVQAGGSLRLSCAASGSIFTPYAMGWYRQAPGKERELVAGIRSSGGRTYYADSVKGRFTISRDNAKNTVYLQMNSLKPEDTAVYYCAARVGGIYRNDYWGQGTQVTVSS	low polyreactivity
QVQLVESGGGLVQAGGSLRLSCAASGSIFTQNAMGWYRQAPGKERELVAAITSTGGSTYYADSVKGRFTISRDNAKNTVYLQMNSLKPEDTAVYYCNADGFRRAALHDYWGQGTQVTVSS	high polyreactivity
QVQLVESGGGLVQAGGSLRLSCAASGSIFTQYAMGWYRQAPGKEREFVARITGSGGRTYYADSVKGRFTISRDNAKNTVYLQMNSLKPEDTAVYYCAARDVRPYYVKPPVRYYYWGQGTQVTVSS	high polyreactivity
QVQLVESGGGLVQAGGSLRLSCAASGSIFTQYAMGWYRQAPGKERELVARITGSGGRTYYADSVKGRFTISRDNAKNTVYLQMNSLKPEDTAVYYCAARDVRPYYVKPPVRYYYWGQGTQVTVSS	high polyreactivity
QVQLVESGGGLVQAGGSLRLSCAASGSIFTQYTMGWYRQAPGKERELVAAISRSGGRTYYADSVKGRFTISRDNSKNTVYLQMKSLKPEDTAVYYCAAEYTDKYEYWGQGTQVTVSS	high polyreactivity
QVQLVESGGGLVQAGGSLRLSCAASGSIFTRNAMGWYRQAPGKERELVASISYSGGNTYYADSVKGRFTISRDNAKNTVYLQMNSLKPEDTAVYYCNARRWFYLLYGYDYWGQGTQVTVSS	high polyreactivity
QVQLVESGGGLVQAGGSLRLSCAASGSIFTRYVMGWYRQARGKERELVASISGRGSSTYYADSVKGRFTISRDNAKNTVYLQMNSLKPEDTAVYYCAAEIVVFYSEGQRNTFYYWGQGTQVTVSS	high polyreactivity
QVQLVESGGGLVQAGGSLRLSCAASGSIFTSNAMGWYRQAPGKERELVAVISRRGGSTYYADSVKGRFTISRDNAKNTVYLQMNSLKPEDTAVYYCARRPYSYTRYEYWGQGTQVTVSS	low polyreactivity
QVQLVESGGGLVQAGGSLRLSCAASGSIFTSYAMVWYRQAPGKERELVAAITSGGSTYYAHSVKGRFTISRDNAKKTVYLLMNSLKPEDTAVYYCAALQVRTSKLHMGYWGQGTQVTVSS	low polyreactivity
QVQLVESGGGLVQAGGSLRLSCAASGSIFTTYAMGWSRQAPGKERELVAAITTSGGRTYYADSVKGRFTISRDNAKNTVYLQMNSLKPDDTAVYYCNAVRGGRYGLDYWGQGTQVTVSS	high polyreactivity
QVQLVESGGGLVQAGGSLRLSCAASGSIFTVNAMGWYIQAPGIERELVAAIDGSSGSTNYADSVKGRFTISRDIAKNTVYLQMNSLKPEDTAVYYCAADWSYEYGYWGQGTQVTVSS	low polyreactivity
QVQLVESGGGLVQAGGSLRLSCAASGSIFTVNAMGWYRQAPGKEMEFVAAITGGGTSTYYADSVKGRFTISRDNAKNTVYLQMNSLTPEVTAVYYCAATTYHYSPTYGYWGQGTQVTVSS	low polyreactivity
QVQLVESGGGLVQAGGSLRLSCAASGSIFTVNAMGWYRQAPGKERELVAAISDSGGSTYYADSVKGRFTISRDNAKNTVYLQMISLKPEDTAVYYCAVEIYYFVYGISYDYWGQGTQVTVSS	high polyreactivity
